# Measurements: US10117916B2, “Peptides and combination of peptides for use in immunotherapy against CLL and other cancers” (immatics biotechnologies GmbH, priority 2015, dated 2018)
# Biological target: HLA-A*02:01 (Homo sapiens, UniProt P04439, D140Y/D185E/D98H/E176V/E277Q/G131W/G231S/I119V/I121R/I166T/I218V/L300P/L318F/N151K/N90K/P208A/P217A/Q86G/Q94H/R138H/R169H/T345S)
# Test: MHC binding assay: UV-ligand exchange with β2m ELISA (peptide exchange yield)
# Conditions: MHC class I binding score; binding to HLA-A*02:01 ranged by peptide exchange yield (UV-ligand exchange, β2m ELISA)
# Source text: Candidate peptides for T cell based therapies according to the present invention were further tested for their MHC binding capacity (affinity). The individual peptide-MHC complexes were produced by UV-ligand exchange, where a UV-sensitive peptide is cleaved upon UV-irradiation, and exchanged with the peptide of interest as analyzed. Only peptide candidates that can effectively bind and stabilize the peptide-receptive MHC molecules prevent dissociation of the MHC complexes. To determine the yield of the exchange reaction, an ELISA was performed based on the detection of the light chain (β2m) of stabilized MHC complexes. The assay was performed as generally described in Rodenko et al. (Rodenko et al., 2006).
# 96 well MAXISorp plates (NUNC) were coated over night with 2 ug/ml streptavidin in PBS at room temperature, washed 4× and blocked for 1 h at 37° C. in 2% BSA containing blocking buffer. Refolded HLA-A*02:01/MLA-001 monomers served as standards, covering the range of 15-500 ng/ml. Peptide-MHC monomers of the UV-exchange reaction were diluted 100 fold in blocking buffer. Samples were incubated for 1 h at 37° C., washed four times, incubated with 2 ug/ml HRP conjugated anti-β2m for 1 h at 37° C., washed again and detected with TMB solution that is stopped with […]. Absorption was measured at 450 nm. Candidate peptides that show a high exchange yield (preferably higher than 50%, most preferred higher than 75%) are generally preferred for a generation and production of antibodies or fragments thereof, and/or T cell receptors or fragments thereof, as they show sufficient avidity to the MHC molecules and prevent dissociation of the MHC complexes.
row,Substance,Peptide Exchange
1,73 (GLLEVISALQL; listed as Homo sapiens) [compound 73],″+++″ (≥50 = +++)
2,74 (GLLRASFLL; listed as Homo sapiens) [compound 74],″++″ (≥20% = ++)
3,75 (GLSIFAQDLRL; listed as Homo sapiens) [compound 75],″++″ (≥20% = ++)
4,78 (GLPSFLTEV; listed as Homo sapiens) [compound 78],″+++″ (≥50 = +++)
5,80 (VLIEDELEEL; listed as Homo sapiens) [compound 80],″++″ (≥20% = ++)
6,82 (GLQSGVDIGV; listed as Homo sapiens) [compound 82],″+++″ (≥50 = +++)
7,84 (GVMDVNTAL; listed as Homo sapiens) [compound 84],″++″ (≥20% = ++)
8,85 (HLMLHTAAL; listed as Homo sapiens) [compound 85],″++++″ (≥75% = ++++)
9,90 (VIADLGLIRV; listed as Homo sapiens) [compound 90],″+++″ (≥50 = +++)
10,91 (ILDLNTYNV; listed as Homo sapiens) [compound 91],″+++″ (≥50 = +++)
11,92 (ILEPLNPLL; listed as Homo sapiens) [compound 92],″+++″ (≥50 = +++)
12,93 (ILFNTQINI; listed as Homo sapiens) [compound 93],″+++″ (≥50 = +++)
13,94 (ILFPLRFTL; listed as Homo sapiens) [compound 94],″+++″ (≥50 = +++)
14,95 (ILGYMAHEHKV; listed as Homo sapiens) [compound 95],″++″ (≥20% = ++)
15,98 (SLIKYFLFV; listed as Homo sapiens) [compound 98],″+″ (≥10% = +)
16,103 (KLGGTPAPA; listed as Homo sapiens) [compound 103],″++″ (≥20% = ++)
17,104 (KLILLDTPLFL; listed as Homo sapiens) [compound 104],″+++″ (≥50 = +++)
18,105 (KLMNDIADI; listed as Homo sapiens) [compound 105],″++″ (≥20% = ++)
19,107 (ILYNLYDLL; listed as Homo sapiens) [compound 107],″+++″ (≥50 = +++)
20,108 (VIYTLIHYI; listed as Homo sapiens) [compound 108],″+++″ (≥50 = +++)
21,111 (KLWNVAAPLYL; listed as Homo sapiens) [compound 111],″+++″ (≥50 = +++)
22,115 (LLFDKLYLL; listed as Homo sapiens) [compound 115],″+++″ (≥50 = +++)

row,Substance,Peptide Exchange
1,118 (RLLILENILL; listed as Homo sapiens) [compound 118],″+++″ (≥50 = +++)
2,119 (VLPAEFFEV; listed as Homo sapiens) [compound 119],″+++″ (≥50 = +++)
3,122 (LLIPVVPGV; listed as Homo sapiens) [compound 122],″+++″ (≥50 = +++)
4,123 (LLLAEAELLTL; listed as Homo sapiens) [compound 123],″++″ (≥20% = ++)
5,125 (LLLEIGEVGKLFV; listed as Homo sapiens) [compound 125],″+++″ (≥50 = +++)
6,126 (LLPEGGITAI; listed as Homo sapiens) [compound 126],″+++″ (≥50 = +++)
7,127 (LLPTAPTTV; listed as Homo sapiens) [compound 127],″+++″ (≥50 = +++)
8,130 (LLVLIPVYL; listed as Homo sapiens) [compound 130],″+″ (≥10% = +)
9,132 (LVYEAIIMV; listed as Homo sapiens) [compound 132],″+++″ (≥50 = +++)
10,133 (YLLSGDISEA; listed as Homo sapiens) [compound 133],″+++″ (≥50 = +++)
11,134 (MLLEHGITLV; listed as Homo sapiens) [compound 134],″++++″ (≥75% = ++++)
12,138 (NLLDIDAPVTV; listed as Homo sapiens) [compound 138],″+++″ (≥50 = +++)
13,141 (QILSEIVEA; listed as Homo sapiens) [compound 141],″++″ (≥20% = ++)
14,142 (QLDEPAPQV; listed as Homo sapiens) [compound 142],″++″ (≥20% = ++)
15,143 (QLLDTYFTL; listed as Homo sapiens) [compound 143],″+++″ (≥50 = +++)
16,148 (SIVASLITV; listed as Homo sapiens) [compound 148],″+++″ (≥50 = +++)
17,149 (SLDNGGYYI; listed as Homo sapiens) [compound 149],″+++″ (≥50 = +++)
18,150 (SLFDQPLSII; listed as Homo sapiens) [compound 150],″+++″ (≥50 = +++)
19,151 (SLFDSAYGA; listed as Homo sapiens) [compound 151],″+++″ (≥50 = +++)
20,152 (SLIRILQTI; listed as Homo sapiens) [compound 152],″+++″ (≥50 = +++)
21,155 (SLMLEVPAL; listed as Homo sapiens) [compound 155],″+++″ (≥50 = +++)
22,156 (SLNIGDVQL; listed as Homo sapiens) [compound 156],″+++″ (≥50 = +++)

# Second part, the substance after the results:
row,Peptide Exchange,Substance
1,″+++″ (≥50 = +++),76 (GLLRIIPYL; listed as Homo sapiens) [compound 76]
2,″+++″ (≥50 = +++),79 (GLQAKIQEA; listed as Homo sapiens) [compound 79]
3,″+++″ (≥50 = +++),83 (GQGEVLVYV; listed as Homo sapiens) [compound 83]
4,″++″ (≥20% = ++),87 (HQIEAVDGEEL; listed as Homo sapiens) [compound 87]
5,″+++″ (≥50 = +++),88 (ILDEIGADVQA; listed as Homo sapiens) [compound 88]
6,″+++″ (≥50 = +++),89 (ILDFGTFQL; listed as Homo sapiens) [compound 89]
7,″++″ (≥20% = ++),97 (LLFATQITL; listed as Homo sapiens) [compound 97]
8,″+++″ (≥50 = +++),99 (ILIFHSVAL; listed as Homo sapiens) [compound 99]
9,″+++″ (≥50 = +++),106 (FMASHLDYL; listed as Homo sapiens) [compound 106]
10,″+++″ (≥50 = +++),109 (KLWEGLTELV; listed as Homo sapiens) [compound 109]
11,″+++″ (≥50 = +++),110 (LLFDHLEPMEL; listed as Homo sapiens) [compound 110]
12,″+++″ (≥50 = +++),113 (KVPAEEVLVAV; listed as Homo sapiens) [compound 113]
13,″+++″ (≥50 = +++),116 (LLIGATMQV; listed as Homo sapiens) [compound 116]
14,″+++″ (≥50 = +++),117 (LLILENILL; listed as Homo sapiens) [compound 117]
15,″+++″ (≥50 = +++),120 (AIDAALTSV; listed as Homo sapiens) [compound 120]
16,″++++″ (≥75% = ++++),121 (RLYEITIEV; listed as Homo sapiens) [compound 121]
17,″+++″ (≥50 = +++),124 (LLLEETEKQAV; listed as Homo sapiens) [compound 124]
18,″+++″ (≥50 = +++),128 (LLSEEEYHL; listed as Homo sapiens) [compound 128]
19,″+″ (≥10% = +),131 (LQALEVLKI; listed as Homo sapiens) [compound 131]
20,″+″ (≥10% = +),135 (MTAGFSTIAGSV; listed as Homo sapiens) [compound 135]
21,″++″ (≥20% = ++),136 (NLDKLWTLV; listed as Homo sapiens) [compound 136]
22,″+++″ (≥50 = +++),137 (NLIKTVIKL; listed as Homo sapiens) [compound 137]
23,″+++″ (≥50 = +++),139 (NLTDVVEKL; listed as Homo sapiens) [compound 139]
24,″+++″ (≥50 = +++),140 (QIAELPATSV; listed as Homo sapiens) [compound 140]
25,″+++″ (≥50 = +++),145 (SALDTITTV; listed as Homo sapiens) [compound 145]
26,″+++″ (≥50 = +++),146 (SIIEGPIIKL; listed as Homo sapiens) [compound 146]
27,″+++″ (≥50 = +++),147 (SILETVATL; listed as Homo sapiens) [compound 147]
28,″+++″ (≥50 = +++),153 (SLLAELHVL; listed as Homo sapiens) [compound 153]
